{"source": "patent US7592309B2", "about": "“Method of using a peptide having analgesic and antitumor activity from scorpion” (priority 2001, dated 2009)", "type_in_all_cases": "in vivo", "key": {"[1]": {"test_system": "ehrlich ascites carcinoma", "assay": "mouse ehrlich ascites carcinoma model, rate of life prolonging", "experimental": "(§1) In mouse experimental tumor model, such as ehrlich ascites carcinoma and S180 entity tumor, the peptide derived from the scorpion or partial fragment, derivative or analogue thereof having analgesic and antitumor activity obtained in example 1,2 and 6 was injected subcutaneously in a dose of 0.1 mg/kg weight to 16.0 mg/kg weight for continuous seven days. […] For example, the peptide of the SDS-PAGE single band obtained in Example 1 was administrated at the dose of 0.639 mg/kg weight. […] The peptide derived from the scorpion or partial fragment, derivative or analogue thereof having analgesic and antitumor activity obtained in example 1,2 and 6 was administrated by stomach infusion in a dose of 0.1 mg/kg weight to 16.0 mg/kg weight for continuous ten days."}, "S180 sarcoma solid tumor": {"test_system": "S180 sarcoma solid tumor", "assay": "mouse S180 sarcoma solid tumor model, inhibitory rate of tumor weight", "settings": "S180, dose 60.0 mg/kg weight (positive control)", "experimental": "as §1"}, "[2]": {"test_system": "writhing response of mouse (acetic acid writhing model)", "settings": "administered by stomach infusion", "experimental": "(§2) The above samples were administrated by stomach infusion in a dose of 0.1 mg/kg weight to 16.0 mg/kg weight. […] In the mouse heat plate model, the above samples were administrated by intravenous injection in a dose of 0.1 mg/kg weight to 16.0 mg/kg weight. […] For example, the peptide of SDS-PAGE single band obtained in example 1 and 2 were injected intravenously at 0.6 mg/kg weight."}, "mouse heat plate model": {"test_system": "mouse heat plate model", "assay": "mouse heat plate model (pain threshold)", "settings": "0.6 mg/kg weight intravenously", "experimental": "as §2"}}, "data": [{"molecule": "O=P1(N(CCCl)CCCl)NCCCO1", "note": "(stereo not drawn) [cyclophosphamide, reference compound]", "values": [{"measurement": "rate of life prolonging", "setting": "[1]; dose 60.0 mg/kg weight, subcutaneous injection (positive control)", "value": 15.6, "unit": "%"}, {"measurement": "inhibitory rate of tumor weight", "setting": "S180 sarcoma solid tumor", "value": 50.5, "unit": "%"}]}, {"molecule": "Example 2: peptide having analgesic and antitumor activity purified from homogenized scorpion by the processes of Example 1; SEQ ID NO: 1 (protein, Scorpion) VRDGYIADDKNCAYFCGRNAYCDDECKKNGAESGYCQWAGVYGNACWCYKLPDKVPIRVPGKCNGG", "values": [{"measurement": "ED50 (median effective dose)", "setting": "[2]", "value": 2.86, "unit": "mg/kg weight"}, {"measurement": "pain threshold raised in a rate of", "setting": "mouse heat plate model; at 5 min", "value": 16.5, "unit": "%"}, {"measurement": "pain threshold raised in a rate of", "setting": "mouse heat plate model; at 15 min", "value": 145.7, "unit": "%"}, {"measurement": "pain threshold raised in a rate of", "setting": "mouse heat plate model; at 25 min", "value": 219.1, "unit": "%"}, {"measurement": "pain threshold raised in a rate of", "setting": "mouse heat plate model; at 35 min", "value": 219.1, "unit": "%"}, {"measurement": "pain threshold raised in a rate of", "setting": "mouse heat plate model; at 45 min", "value": 177.6, "unit": "%"}, {"measurement": "pain threshold raised in a rate of", "setting": "mouse heat plate model; at 60 min", "value": 32.4, "unit": "%"}, {"measurement": "pain threshold raised in a rate of", "setting": "mouse heat plate model; at 90 min", "value": 14.9, "unit": "%"}, {"measurement": "rate of life prolonging", "setting": "[1]; stomach infusion, dose 0.213 mg/kg weight, ten days", "value": 16.8, "unit": "%"}, {"measurement": "rate of life prolonging", "setting": "[1]; stomach infusion, dose 0.639 mg/kg weight, ten days", "value": 31.5, "unit": "%"}]}]}
